In the supplement of paper PMC9876800:

Test system: peptide library, one residue held at a place counted from the S/T acceptor
Assay: relative phosphorylation of the sub-library (ratio to the mean residue at this position); human; higher = residue favoured
Outline: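 Purified recombinant kinases, either human or orthologue constructs, were incubated in 384-well plates with biotinylated degenerate peptide sub-libraries. Each sub-library fixed one residue at one position around a central Ser/Thr. Peptides at 50 μM and 50 μM ATP spiked with γ-32P-ATP were used for 90 min under kinase-specific conditions, and spots on streptavidin membranes were phosphorimaged and quantified by densitometry. Relative sub-library phosphorylation is expressed as a ratio to the mean residue at that position.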

Sequence of MAP3K10, construct: aa1-449 (Q02779 1-449, looked up): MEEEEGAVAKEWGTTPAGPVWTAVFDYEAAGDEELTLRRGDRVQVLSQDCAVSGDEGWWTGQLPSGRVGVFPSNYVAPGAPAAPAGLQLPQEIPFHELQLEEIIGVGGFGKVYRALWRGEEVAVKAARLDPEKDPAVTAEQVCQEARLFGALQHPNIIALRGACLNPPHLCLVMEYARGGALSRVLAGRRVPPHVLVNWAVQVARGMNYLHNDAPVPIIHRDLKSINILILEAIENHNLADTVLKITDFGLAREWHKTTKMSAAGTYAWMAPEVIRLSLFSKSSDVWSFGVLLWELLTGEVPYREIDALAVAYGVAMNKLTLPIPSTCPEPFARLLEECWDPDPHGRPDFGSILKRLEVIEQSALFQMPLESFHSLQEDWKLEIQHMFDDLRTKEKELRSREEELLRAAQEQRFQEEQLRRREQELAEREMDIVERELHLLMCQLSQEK
Sequence of IKBKE, construct: Full length (Q14164 whole entry, looked up): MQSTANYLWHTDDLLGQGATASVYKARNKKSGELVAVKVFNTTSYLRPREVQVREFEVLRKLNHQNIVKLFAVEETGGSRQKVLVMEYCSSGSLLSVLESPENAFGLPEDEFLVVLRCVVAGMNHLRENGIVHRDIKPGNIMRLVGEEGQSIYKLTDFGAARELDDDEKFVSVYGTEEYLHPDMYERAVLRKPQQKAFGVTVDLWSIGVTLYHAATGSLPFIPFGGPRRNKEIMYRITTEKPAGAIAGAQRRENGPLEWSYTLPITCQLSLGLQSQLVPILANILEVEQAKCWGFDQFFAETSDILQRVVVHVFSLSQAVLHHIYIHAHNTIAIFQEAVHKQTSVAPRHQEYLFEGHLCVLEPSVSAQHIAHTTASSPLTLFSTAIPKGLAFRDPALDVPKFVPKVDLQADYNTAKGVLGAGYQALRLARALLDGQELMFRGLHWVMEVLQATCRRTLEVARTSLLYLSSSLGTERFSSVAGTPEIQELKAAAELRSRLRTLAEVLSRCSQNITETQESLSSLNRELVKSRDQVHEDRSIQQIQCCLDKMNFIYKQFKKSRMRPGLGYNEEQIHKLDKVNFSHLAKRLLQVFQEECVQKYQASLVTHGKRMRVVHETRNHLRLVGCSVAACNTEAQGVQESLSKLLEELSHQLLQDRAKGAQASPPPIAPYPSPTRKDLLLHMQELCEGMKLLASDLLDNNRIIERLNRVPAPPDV

IKBKE, construct: Full length (from UniProt Q14164)
relative phosphorylation
Details | at +1 | at +2 | at +3 | at +4 | at -1 | at -2 | at -3 | at -4 | at -5
A fixed | 0.346 | 1.18 | 0.935 | 0.899 | 0.911 | 0.889 | 1.11 | 1.12 | 1.26
D fixed | 0.306 | 1.07 | 0.898 | 0.987 | 1.04 | 1.25 | 1.24 | 1.35 | 1.34
E fixed | 0.22 | 0.933 | 0.928 | 1.01 | 0.97 | 0.821 | 1.2 | 1.23 | 1.27
F fixed | 1.6 | 0.967 | 1.22 | 1.12 | 1.03 | 1.65 | 0.755 | 0.829 | 0.992
G fixed | 0.423 | 0.811 | 0.961 | 0.879 | 0.677 | 0.857 | 1.42 | 1.44 | 1.21
H fixed | 0.688 | 1.14 | 1.24 | 1.15 | 1.11 | 0.99 | 1.09 | 1.08 | 1.14
I fixed | 2.51 | 1.06 | 0.853 | 0.964 | 0.899 | 0.528 | 0.632 | 0.796 | 0.742
K fixed | 0.219 | 0.714 | 0.471 | 0.672 | 0.849 | 0.563 | 0.819 | 0.88 | 0.927
L fixed | 3.41 | 1.08 | 0.887 | 0.994 | 1.18 | 1.11 | 0.743 | 0.94 | 0.753
M fixed | 3.08 | 1.18 | 1.11 | 1.03 | 1.28 | 1.65 | 1.07 | 0.928 | 0.808
N fixed | 0.323 | 1.04 | 0.9 | 0.854 | 0.916 | 0.916 | 1.12 | 1.01 | 1.06
P fixed | 0.178 | 0.893 | 1.14 | 1.1 | 1.12 | 1.13 | 1.3 | 1.06 | 0.959
Q fixed | 0.292 | 1.07 | 0.835 | 0.839 | 0.89 | 0.796 | 1.05 | 0.942 | 0.827
R fixed | 0.248 | 0.931 | 0.626 | 0.721 | 0.955 | 0.62 | 0.968 | 0.845 | 0.965
V fixed | 1.04 | 1.22 | 0.936 | 0.926 | 0.986 | 0.544 | 0.672 | 0.665 | 0.861
W fixed | 1 | 0.876 | 1.33 | 1.65 | 0.94 | 0.934 | 0.826 | 0.955 | 0.922
Y fixed | 1.12 | 0.831 | 1.74 | 1.21 | 1.24 | 1.76 | 0.995 | 0.918 | 0.974
pThr fixed | 0.471 | 1.03 | 0.717 | 1.04 | 0.722 | 0.757 | 1.13 | 1.18 | 1
pTyr fixed | 0.448 | 0.8 | 1.07 | 0.934 | 1.18 | 1.29 | 1.67 | 1.13 | 1.03

MAP3K10, construct: aa1-449 (from UniProt Q02779)
relative phosphorylation
Details | at +1 | at +2 | at +3 | at +4 | at -1 | at -2 | at -3 | at -4 | at -5
A fixed | 0.988 | 0.921 | 1.06 | 1.24 | 0.881 | 0.969 | 1.12 | 1.23 | 1.48
D fixed | 0.28 | 0.398 | 0.506 | 0.72 | 0.775 | 0.594 | 0.888 | 1.11 | 1.11
E fixed | 0.404 | 0.392 | 0.439 | 0.573 | 0.65 | 0.584 | 0.827 | 0.909 | 0.764
F fixed | 1.53 | 0.602 | 1.19 | 0.779 | 1.05 | 1.44 | 0.935 | 0.693 | 0.878
G fixed | 0.999 | 0.749 | 1.42 | 1.43 | 0.603 | 0.911 | 1.28 | 1.43 | 1.39
H fixed | 1.65 | 2.11 | 1.34 | 1.07 | 1.39 | 1.2 | 1.19 | 1.11 | 1.17
I fixed | 0.774 | 0.445 | 0.773 | 0.705 | 0.65 | 0.505 | 0.484 | 0.541 | 0.596
K fixed | 1.12 | 1.84 | 1.01 | 1.44 | 1.22 | 0.514 | 0.964 | 1.08 | 0.953
L fixed | 0.764 | 0.561 | 0.897 | 0.75 | 0.973 | 0.789 | 0.731 | 0.698 | 0.712
M fixed | 1.33 | 0.634 | 0.985 | 0.746 | 1.14 | 1.3 | 0.821 | 0.879 | 0.725
N fixed | 0.977 | 1.07 | 1.06 | 1.06 | 1.23 | 1.08 | 1.54 | 1.17 | 1.01
P fixed | 0.32 | 0.67 | 1.06 | 1.7 | 0.95 | 1.87 | 1.51 | 1.56 | 1.28
Q fixed | 1.54 | 1.24 | 1.06 | 1.35 | 1.37 | 1.12 | 1.26 | 1.05 | 0.951
R fixed | 1.35 | 2.26 | 0.966 | 0.912 | 1.09 | 0.569 | 0.762 | 0.957 | 1
V fixed | 0.942 | 0.635 | 0.791 | 0.777 | 0.806 | 0.589 | 0.665 | 0.636 | 0.846
W fixed | 1.05 | 1.09 | 1.28 | 0.923 | 1.07 | 1.5 | 0.997 | 1.09 | 1.24
Y fixed | 0.978 | 1.39 | 1.16 | 0.832 | 1.15 | 1.47 | 1.02 | 0.843 | 0.884
pThr fixed | 0.578 | 0.503 | 0.623 | 0.634 | 0.63 | 0.706 | 0.849 | 0.914 | 0.992
pTyr fixed | 0.455 | 0.311 | 0.519 | 0.452 | 0.862 | 0.525 | 0.707 | 0.616 | 0.73
